Test system: Escherichia coli TOP10
Assay: shrunken log2 fold change of peptide-encoding DNA abundance (4.5 h post-induction vs induction); higher = less antimicrobial activity (less host growth inhibition)
Details: time post-induction: 4.5 h; library: site-saturation at positions 5, 18, 19, 20
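Note: peptides expressed intracellularly from a pBAD plasmid library in pooled LB shake-flask culture, induced with 0.3% L-arabinose, DNA abundance read by NGS, three biological replicates, DESeq2 with apeglm shrinkage.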

Row | Sequence | shrunken log2 fold change
1 | RRIRPRPPRLPRPRPRPDPKPRP | 0.367
2 | RRIRKRPPRLPRPRPRPMMDPRP | 0.0443
3 | RRIRKRPPRLPRPRPRPHEHPRP | 0.0272
4 | RRIRTRPPRLPRPRPRPWCNPRP | -0.0437
5 | RRIRDRPPRLPRPRPRPSYFPRP | -0.255
6 | RRIRERPPRLPRPRPRPTEKPRP | 0.154
7 | RRIRGRPPRLPRPRPRPDSTPRP | 0.213
8 | RRIRSRPPRLPRPRPRPMTGPRP | 0.00381
9 | RRIRYRPPRLPRPRPRPWGCPRP | -0.404
10 | RRIRQRPPRLPRPRPRPWLTPRP | -0.13
11 | RRIRCRPPRLPRPRPRPYHCPRP | -0.271
12 | RRIRCRPPRLPRPRPRPMLGPRP | -0.0961
13 | RRIRWRPPRLPRPRPRPLKYPRP | -0.384
14 | RRIRRRPPRLPRPRPRPHVVPRP | 0.0538
15 | RRIRPRPPRLPRPRPRPVIMPRP | -0.634
16 | RRIRMRPPRLPRPRPRPDYHPRP | -0.457
17 | RRIRKRPPRLPRPRPRPLSSPRP | 0.115
18 | RRIRKRPPRLPRPRPRPNLLPRP | -0.263
19 | RRIRPRPPRLPRPRPRPVHHPRP | -0.218
20 | RRIRGRPPRLPRPRPRPQYAPRP | 0.285
21 | RRIRRRPPRLPRPRPRPDIWPRP | 0.418
22 | RRIRWRPPRLPRPRPRPLEQPRP | 0.392
23 | RRIRARPPRLPRPRPRPDVQPRP | 0.474
24 | RRIRCRPPRLPRPRPRPKTGPRP | -0.0569
25 | RRIRTRPPRLPRPRPRPQQYPRP | -0.0717

Row | Sequence | shrunken log2 fold change
26 | RRIRTRPPRLPRPRPRPSDDPRP | -0.182
27 | RRIRQRPPRLPRPRPRPNKFPRP | -0.896
28 | RRIRERPPRLPRPRPRPWYMPRP | -0.386
29 | RRIRIRPPRLPRPRPRPSAMPRP | -0.349
30 | RRIRDRPPRLPRPRPRPHCEPRP | -0.0477
31 | RRIRMRPPRLPRPRPRPSPIPRP | -0.106
32 | RRIRRRPPRLPRPRPRPYCTPRP | -0.24
33 | RRIRNRPPRLPRPRPRPWLGPRP | 0.0222
34 | RRIRMRPPRLPRPRPRPKFHPRP | -0.174
35 | RRIRIRPPRLPRPRPRPRTGPRP | -0.0659
36 | RRIRSRPPRLPRPRPRPHGDPRP | 0.043
37 | RRIRYRPPRLPRPRPRPREEPRP | 0.0202
38 | RRIRERPPRLPRPRPRPIFKPRP | 0.138
39 | RRIRSRPPRLPRPRPRPLVTPRP | 0.0214
40 | RRIRVRPPRLPRPRPRPSCNPRP | -0.509
41 | RRIRIRPPRLPRPRPRPIAHPRP | -0.358
42 | RRIRHRPPRLPRPRPRPGSMPRP | -0.099
43 | RRIRARPPRLPRPRPRPYDPPRP | -0.406
44 | RRIRIRPPRLPRPRPRPRFKPRP | -0.575
45 | RRIRERPPRLPRPRPRPDCYPRP | -0.0856
46 | RRIRARPPRLPRPRPRPIGEPRP | -0.0613
47 | RRIRRRPPRLPRPRPRPKLFPRP | 0.37
48 | RRIRGRPPRLPRPRPRPTYKPRP | 0.937
49 | RRIRHRPPRLPRPRPRPASEPRP | -0.131
50 | RRIRTRPPRLPRPRPRPRFCPRP | 0.443

Row | Sequence | shrunken log2 fold change
51 | RRIRIRPPRLPRPRPRPTQYPRP | -0.616
52 | RRIRPRPPRLPRPRPRPLRNPRP | 0.673
53 | RRIRSRPPRLPRPRPRPTLLPRP | 0.227
54 | RRIRTRPPRLPRPRPRPLHSPRP | 0.186
55 | RRIRYRPPRLPRPRPRPGRVPRP | -0.106
56 | RRIRMRPPRLPRPRPRPQWWPRP | 0.245
57 | RRIRNRPPRLPRPRPRPNTPPRP | -0.543
58 | RRIRLRPPRLPRPRPRPDKGPRP | -0.162
59 | RRIRDRPPRLPRPRPRPVQRPRP | 0.121
60 | RRIRSRPPRLPRPRPRPGWQPRP | -0.339
61 | RRIRIRPPRLPRPRPRPIKTPRP | -0.0553
62 | RRIRERPPRLPRPRPRPCKQPRP | -0.086
63 | RRIRRRPPRLPRPRPRPYKYPRP | -0.415
64 | RRIRWRPPRLPRPRPRPYHNPRP | -0.296
65 | RRIRSRPPRLPRPRPRPGCYPRP | -0.173
66 | RRIRMRPPRLPRPRPRPHIRPRP | -0.0162
67 | RRIRVRPPRLPRPRPRPIYAPRP | -0.0133
68 | RRIRERPPRLPRPRPRPALNPRP | 0.0441
69 | RRIRQRPPRLPRPRPRPRWFPRP | 0.0284
70 | RRIRRRPPRLPRPRPRPLCPPRP | 1.21
71 | RRIRFRPPRLPRPRPRPMYTPRP | -0.00812
72 | RRIRERPPRLPRPRPRPLRHPRP | 0.11
73 | RRIRQRPPRLPRPRPRPSCSPRP | -0.111
74 | RRIRARPPRLPRPRPRPGSPPRP | 0.394
75 | RRIRIRPPRLPRPRPRPVFHPRP | -0.936

Reference: the supplement of paper PMC9112550, “Optimization of the antimicrobial peptide Bac7 by deep mutational scanning” (BMC Biology, 2022)
